The values that follow come from paper PMC7116145.

The target in experiment [1] is CPTX-HIS, purified recombinant (UniProt P23435). Description: SEC-MALS.
Experiment [2] addresses NP1PTX fused to the C-terminus of a three-stranded GCN4 coiled coil (UniProt Q15818). Put plainly: SEC-MALS. (In general: Size exclusion chromatography separates by hydrodynamic size, large species first.)
The target of experiment [3] is CPTX, biotinylated on a C-terminal Avitag (immobilised in SPR) (UniProt P23435). Description: SPR. For orientation: Surface plasmon resonance follows binding to a sensor surface in real time, without labels.

One may read the stoichiometry N as a count of units in the complex or per binding partner. In general, Kd refers to the equilibrium constant for the complex coming apart. A high value points to weaker binding.

Chain of human β-neurexin-1 LNS6 domain including spliced sequence #4 (P58400 86-295): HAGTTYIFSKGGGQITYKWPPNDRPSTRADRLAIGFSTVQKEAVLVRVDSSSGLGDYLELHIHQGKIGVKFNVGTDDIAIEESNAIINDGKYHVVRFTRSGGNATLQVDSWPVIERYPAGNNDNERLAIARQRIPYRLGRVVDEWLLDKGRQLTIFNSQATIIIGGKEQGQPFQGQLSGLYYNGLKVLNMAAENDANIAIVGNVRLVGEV

In the case of “CPTX-HIS, purified recombinant (from UniProt P23435 22-53; Q15818 224-431) (designed binder)”, the stoichiometry N in experiment [1] came out at 6.

With “NP1PTX fused to the C-terminus of a three-stranded GCN4 coiled coil (from UniProt Q15818 224-431)”, in experiment [2], the stoichiometry N came to 3.

Consider “human β-neurexin-1 LNS6 domain including spliced sequence #4 (from UniProt P58400 86-295) (domain or fragment)”, for which the Kd in experiment [3] was found to be 4.9 nM.
